Assay results: publication PMC3046063 (Molecular Biology of the Cell, 2011)

Tests used:
His-Gαi3 [1] = molecular target: T1, His-Gαi3 (UniProt P08753 1-354); test: SEC
His-Gαi3 [2] = molecular target: T1, His-Gαi3
His-Gαi3 [3] = molecular target: T1, His-Gαi3; test: cell-based or functional assay

T1 sequence (P08753 whole entry): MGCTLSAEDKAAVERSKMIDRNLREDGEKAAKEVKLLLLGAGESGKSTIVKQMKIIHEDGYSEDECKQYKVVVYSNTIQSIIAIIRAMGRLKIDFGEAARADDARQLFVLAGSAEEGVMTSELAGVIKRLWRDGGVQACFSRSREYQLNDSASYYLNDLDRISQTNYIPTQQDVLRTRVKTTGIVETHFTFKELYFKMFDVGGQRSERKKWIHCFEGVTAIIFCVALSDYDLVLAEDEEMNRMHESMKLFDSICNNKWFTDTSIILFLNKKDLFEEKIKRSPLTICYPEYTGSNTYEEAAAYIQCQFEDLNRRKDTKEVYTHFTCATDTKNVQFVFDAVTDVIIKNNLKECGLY

B1: His-GIV-CTs (aa 1660–1870) (domain or fragment, UniProt Q3V6T2-3 1660-1870, looked up)
chain: SETLESRHHKIKTGSPGSEVVTLQQFLEESNKLTSVQIKSSSQENLLDEVMKSLSVSSDFLGKDKPVSCGLARSVSGKTPGDFYDRRTTKPEFLRPGPRKTEDTYFISSAGKPTPGTQGKIKLVKESSLSRQSKDSNPYATLPRASSVISTAEGTTRRTSIHDFLTKDSRLPISVDSPPAAADSNTTAASNVDKVQESRNSKSRSREQQSS
His-Gαi3 [1]
  stoichiometry N: 1 His-Gαi3:His-GIV-CTs
His-Gαi3 [2]
  Kd: ~300 nM
His-Gαi3 [3]
  steady-state GTPase activity of His-Gαi3 (50 nM) alone with 0-2 μM His-GIV-CTs: ~3 fold
